In US20240132581A1 (BEIJING WISDOMAB BIOTECHNOLOGY, published 2024):

B1: hTSLP1-m-mFc (Fc fusion)
chain: YDFTNCDFEKIKAAYLSTISKDLITYMSGTKSTEFNNTVSCSNRPHCLTEIQSLTFNPTAGCASLAKEMFAMKTKAALAIWCPGYSETQINATQAMKKVTTNKCLEQVSQLQGLWRRFNRPLLKQQPRGPTIKPCPPCKCPAPNLLGGPSVFIFPPKIKDVLMISLSPIVTCVVVDVSEDDPDVQISWFVNNVEVHTAQTQTHREDYNSTLRVVSALPIQHQDWMSGKEFKCKVNNKDLPAPIERTISKPKGSVRAPQVYVLPPPEEEMTKKQVTLTCMVTDFMPEDIYVEWTNNGKTELNYKNTEPVLDSDGSYFMYSKLRVEKKNWVERNSYSCSVVHEGLHNHHTTKSFSRTPGK
notes: also called recombinant protein hTSLP1-m-mFc

Columns and labels:
[1] = target: T1, extracellular domain of human TSLP receptor (hTSLPR-ECD) (human (Homo sapiens), UniProt Q9HC73 23-231); assay: SPR (Biacore T200): hTSLP1-m-mFc captured (about 80 RU) by anti-mFc antibody on CM5, buffer then hTSLPR-ECD at 100 µg/mL
T1 sequence: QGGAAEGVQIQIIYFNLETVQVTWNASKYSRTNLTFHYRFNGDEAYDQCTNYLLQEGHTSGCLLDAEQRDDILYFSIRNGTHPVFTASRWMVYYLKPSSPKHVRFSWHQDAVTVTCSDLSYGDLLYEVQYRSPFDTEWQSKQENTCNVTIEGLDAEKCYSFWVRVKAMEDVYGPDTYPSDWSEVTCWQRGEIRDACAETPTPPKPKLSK

hTSLP1-m-mFc [2] = target: B1; assay: SPR (Biacore T200): hTSLP1-m-mFc captured (about 80 RU) by anti-mFc antibody on CM5, antibody at 50 µg/mL [continued) C]
[3] = target: T2, hTSLP:hTSLPR complex (hTSLP1-m-mFc with hTSLPR-ECD bound, formed on the chip) (human (Homo sapiens), UniProt Q9HC73 23-231); assay: SPR (Biacore T200): chip surface with hTSLP1-m-mFc captured by anti-mFc antibody and loaded with hTSLPR-ECD, antibody at 50 µg/mL injected before hIL-7Rα-ECD [continued) B]
T2 construct: also called TSLP:TSLPR complex

[4] = target: T2, hTSLP:hTSLPR complex (hTSLP1-m-mFc with …); assay: SPR (Biacore T200): chip surface with hTSLP1-m-mFc captured by anti-mFc antibody and loaded with hTSLPR-ECD, antibody at 50 µg/mL injected before hIL-7Rα-ECD [continued) C]
hTSLP1-m-mFc [5] = target: B1; assay: SPR (Biacore T200): hTSLP1-m-mFc captured (about 80 RU) by anti-mFc antibody on CM5, antibody at 50 µg/mL [continued) D]
[6] = target: T2, hTSLP:hTSLPR complex (hTSLP1-m-mFc with …); assay: SPR (Biacore T200): chip surface with hTSLP1-m-mFc captured by anti-mFc antibody and loaded with hTSLPR-ECD, antibody at 50 µg/mL injected before hIL-7Rα-ECD [continued) D]
hTSLP1-m-mFc [7] = target: B1; assay: SPR (Biacore T200): hTSLP1-m-mFc captured (about 80 RU) by anti-mFc antibody on CM5, antibody at 50 µg/mL [continued) E]
[8] = target: cynomolgus monkey TSLP (mfTSLP) (cynomolgus monkey (Macaca fascicularis)); assay: SPR Biacore X100 as in Example 3.1, antibody captured, mfTSLP as analyte

Question: Does B1 bind [1]?
Answer: Result: binds

B2: H3B10-M1+L3E8-M7 (humanized monoclonal antibody) (antibody, V domains shown)
VH: QVTLKESGPVLVKPTETLTLTCTVSGFSLSSYDISWIRQPPGKALEWLGVIWSEGGTSYSTSLKSRLTISKDTSKSQVVLTMTNMDPVDTATYYCARDSDDGYLNWGQGTLVTVSS
VL: EIVMTQSPATLSVSPGERATLSCSVSSSISSSNLHWYQQKPGQAPRPWIYGTSNLASGIPARFSGSGSGTEFTLTISSVQAEDFAVYYCQQWSSYPLTFGQGTKLEIK
notes: Expressed as a whole antibody
Question: Does B2 bind (hTSLP1-m-mFc [2])?
Answer: Result: binds

Question: Does B2 bind [3]?
Answer: Result: binds

B3: H1A10+L3E8-M7 (humanized monoclonal antibody) (antibody, V domains shown)
VH: QVQLVQSGAEVKKPGASVKVSCKASGYAFSNYWMNWVRQAPGQGLEWMGQIFPGDSDTDYDQKFQGRVTMTRDTSTSTVYMELSSLRSEDTAVYYCARAGYYRGYYAMDYWGQGTTVTVSS
VL: EIVMTQSPATLSVSPGERATLSCSVSSSISSSNLHWYQQKPGQAPRPWIYGTSNLASGIPARFSGSGSGTEFTLTISSVQAEDFAVYYCQQWSSYPLTFGQGTKLEIK
notes: Expressed as a whole antibody
Question: What does the source list for B3?
Answer: binding result [4]: binds; binding result (hTSLP1-m-mFc [5]): binds

B4: H1A10×H3B10-M1+L3E8-M7 BsAb (anti-human TSLP bispecific antibody) (bispecific antibody, human IgG1, kappa)
heavy 1: QVQLVQSGAEVKKPGASVKVSCKASGYAFSNYWMNWVRQAPGQGLEWMGQIFPGDSDTDYDQKFQGRVTMTRDTSTSTVYMELSSLRSEDTAVYYCARAGYYRGYYAMDYWGQGTTVTVSSASTKGPSVFPLAPSSKSTSGGTAALGCLVKDYFPEPVTVSWNSGALTSGVHTFPAVLQSSGLYSLSSVVTVPSSSLGTQTYICNVNHKPSNTKVDKRVEPKSCDKTHTCPPCPAPEFEGGPSVFLFPPKPKDTLMISRTPEVTCVVVDVSHEDPEVKFNWYVDGVEVHNAKTKPREEQYNSTYRVVSVLTVLHQDWLNGKEYKCKVSNKALPASIEKTISKAKGQPREPQVYTLPPCREEMTKNQVSLWCLVKGFYPSDIAVEWESNGQPENNYKTTPPVLDSDGSFFLYSKLTVDKSRWQQGNVFSCSVMHEALHNHYTQKSLSLSPGK
heavy 2: QVTLKESGPVLVKPTETLTLTCTVSGFSLSSYDISWIRQPPGKALEWLGVIWSEGGTSYSTSLKSRLTISKDTSKSQVVLTMTNMDPVDTATYYCARDSDDGYLNWGQGTLVTVSSASTKGPSVFPLAPSSKSTSEGTAALGCLVKDYFPEPVTVSWNSGALTSGVHTFPAVLQSSGLYSLSSVVTVPSSSLGTQTYICNVDHKPSNTKVDKTVEPKSCDKTHTCPPCPAPEFEGGPSVFLFPPKPKDTLMISRTPEVTCVVVDVSQEDPEVQFNWYVDGVEVHNAKTKPREEQYNSTYRVVSVLTVLHQDWLNGKEYKCKVSNKALPASIEKTISKAKGQPREPQVCTLPPSQEEMTKNQVSLSCAVKGFYPSDIAVEWESNGQPENNYKTTPPVLDSDGSFFLVSKLTVDKSRWQEGNVFSCSVMHEALHNHYTQKSLSLSPGK
light: EIVMTQSPATLSVSPGERATLSCSVSSSISSSNLHWYQQKPGQAPRPWIYGTSNLASGIPARFSGSGSGTEFTLTISSVQAEDFAVYYCQQWSSYPLTFGQGTKLEIKRTVAAPSVFIFPPSDEQLKSGTASVVCLLNNFYPREAKVQWKVDNALQSGNSQESVTEQDSKDSTYSLSSTLTLSKADYEKHKVYACEVTHQGLSSPVTKSFNRGEC
notes: also called bispecific antibody H1A10×H3B10-M1+L3E8-M7; bispecific antibody H1A10×H3B10-M1
Question: Does B4 bind [6]?
Answer: Result: binds

Question: Does B4 bind (hTSLP1-m-mFc [7])?
Answer: Result: binds

Question: And the Kd [8]?
Answer: Its Kd is 2.75 nM.
